Measurements as given in US10874712B2, “Methods, compounds and compositions for modulating blood brain barrier integrity and re-myelination” (University Health Network, priority 2015, dated 2020).

Legend:
[1] = test system: mouse cerebellar organotypic cultures; test: Remyelination in lysolecithin-demyelinated cerebellar organotypic cultures (MBP staining); assay type: cell-based; conditions: sRGMc 500 ng/ml for 14 days after lysolecithin
Protocol: To assess the ability of sRGMc to function as a remyelinating agent, its function in in vitro cerebellar explant cultures was investigated. Briefly, cultures were demyelinated using lysolecithin, a detergent, and then cultured in the presence of sRGMc for 14 days.
Myelination-demyelination-remyelination studies were performed in mouse cerebellar organotypic cultures. The cerebella of postnatal 6 day old pups were dissected and sectioned at 400 μm thickness using vibratome. Cerebellar sections were then plated on insert plates (Corning, Wilkes Barre, Pa.) and allowed to attach. Media was replaced every 2-3 days and cultures were maintained for 7 days. To induce demyelination, 0.5 mg/ml lysolecithin (1′-monoacyl-1-3-glycerylphosphorylcholine; Sigma) was added to the culture medium for 18 hr, after which it was removed and replaced with fresh medium containing sRGMc (500 ng/ml) or control protein and the cultures maintained for 14 more days. Media was replaced every 2-3 days. Demyelination-remyelination was assessed by staining explants with myelin basic protein antibody MBP (Cell Signaling).

[2] = sRGMc level in sera of treated mice by ELISA; assay type: in vivo, mouse
Protocol: Blood collected from the saphenous veins of mice induced with EAE at 0, 5, 10, 18 and 30 days in Microvette® CB300 capillary tubes (Starstedt) was spun down at 2000 rcf for 10 min and stored at −80° C. sRGMa and sRGMc in the sera were detected using ELISA kits for sRGMa (MRGMAO, R&D) and sRGMc (MRGMCO, R&D) according to manufacturer's instructions.
To ensure that over-expression of sRGMc was efficient, sera from 3 RGMc-treated mice were collected and compared to 3 vehicle-treated mice at 24 h post-treatment by ELISA. […] The mice were then observed and scored twice daily at 12 h intervals for 18 days. […] Whether intra-peritoneal (i.p) injections of RGMc could overcome the transient effects observed with intravenous administration of this protein was explored. […] Next the levels of RGMc in the sera of sham-treated animals and mice induced with EAE at day 10 as well as in EAE animals (day 10) that were injected with RGMc were analyzed. […] Thus, EAE reduced RGMc levels and over-expression of sRGMc in EAE-induced mice is beneficial in reducing the incidence and the severity as well as delaying the onset of disease.

B1: sRGMc: truncated form of RGMc with the GPI anchor sequence removed, released as a soluble protein (SEQ ID NOs: 1 and 3) (protein, listed as Homo sapiens)
chain: CKILRCNAEYVSSTLSLRGGGSSGALRGGGGGGRGGGVGSGGLCRALRSYALCTRRTARTCRGDLAFHSAVHGIEDLMIQHNCSRQGPTAPPPPRGPALPGAGSGLPAPDPCDYEGRFSRLHGRPPGFLHCASFGDPHVRSFHHHFHTCRVQGAWPLLDNDFLFVQATSSPMALGANATATRKLTIIFKNMQECIDQKVYQAEVDNLPVAFEDGSINGGDRPGGSSLSIQTANPGNHVEIQAAYIGTTIIIRQTAGQLSFSIKVAEDVAMAFSAEQDLQLCVGGCPPSQRLSRSERNRRGAITIDTARRLCKEGLPVEDAYFHSCVFDVLISGDPNFTVAAQAALEDARAFLPDLEKLH
[1]
  remyelination (myelin basic protein staining): promote remyelination
[2]; 24 h post-treatment, ELISA, 3 mice per group
  increase in sRGMc levels in sera compared to vehicle-treated animals: 3 fold
[2]; EAE day 10, compared to sham-treated animals
  RGMc levels in sera of EAE mice after RGMc injection: restored
[2]; ELISA, FIG. 4F
  stability of sRGMc treatment in serum: stable for 24 h post treatment
